Assay results published in publication PMC11773481.

Target: purified recombinant DPP9-FLAG, Q86TI2
Experiment: SEC + native gel or EMSA; protein expressed alone in Expi293F, purified by anti-FLAG IP, Superdex 200 Increase 10/300 GL; BN-PAGE immunoblot
Conditions: remark: other sources report otherwise

B1: purified recombinant DPP9-FLAG, Q86TI2 1-863 (enzyme)
chain: MATTGTPTADRGDAAATDDPAARFQVQKHSWDGLRSIIHGSRKYSGLIVNKAPHDFQFVQKTDESGPHSHRLYYLGMPYGSRENSLLYSEIPKKVRKEALLLLSWKQMLDHFQATPHHGVYSREEELLRERKRLGVFGITSYDFHSESGLFLFQASNSLFHCRDGGKNGFMVSPMKPLEIKTQCSGPRMDPKICPADPAFFSFINNSDLWVANIETGEERRLTFCHQGLSNVLDDPKSAGVATFVIQEEFDRFTGYWWCPTASWEGSEGLKTLRILYEEVDESEVEVIHVPSPALEERKTDSYRYPRTGSKNPKIALKLAEFQTDSQGKIVSTQEKELVQPFSSLFPKVEYIARAGWTRDGKYAWAMFLDRPQQWLQLVLLPPALFIPSTENEEQRLASARAVPRNVQPYVVYEEVTNVWINVHDIFYPFPQSEGEDELCFLRANECKTGFCHLYKVTAVLKSQGYDWSEPFSPGEDEFKCPIKEEIALTSGEWEVLARHGSKIWVNEETKLVYFQGTKDTPLEHHLYVVSYEAAGEIVRLTTPGFSHSCSMSQNFDMFVSHYSSVSTPPCVHVYKLSGPDDDPLHKQPRFWASMMEAASCPPDYVPPEIFHFHTRSDVRLYGMIYKPHALQPGKKHPTVLFVYGGPQVQLVNNSFKGIKYLRLNTLASLGYAVVVIDGRGSCQRGLRFEGALKNQMGQVEIEDQVEGLQFVAEKYGFIDLSRVAIHGWSYGGFLSLMGLIHKPQVFKVAIAGAPVTVWMAYDTGYTERYMDVPENNQHGYEAGSVALHVEKLPNEPNRLLILHGFLDENVHFFHTNFLVSQLIRAGKPYQLQIYPNERHSIRCPESGEHYEVTLLHFLQEYL
- stoichiometry N: 2
